These results are taken from PMC7536154, “Biochemical characterization of ferric uptake regulator (Fur) from Aliivibrio salmonicida. Mapping the DNA sequence specificity through binding studies and structural modelling”.

In data set [1] the target is Ferric uptake regulator (Fur) from Aliivibrio salmonicida (Aliivibrio salmonicida). Briefly: SEC; Superdex 200 16/60; 300 mM NaCl, 50 mM Tris-HCl, 5 mM beta-mercaptoethanol, pH 7.5; second purification step after IMAC. (In general: SEC sorts molecules by how far they enter the pores of the column.)
In data set [2] the target is T1, AsFur (ferric uptake regulator) (Aliivibrio salmonicida, UniProt Q7AUU7 1-147).
T1 sequence: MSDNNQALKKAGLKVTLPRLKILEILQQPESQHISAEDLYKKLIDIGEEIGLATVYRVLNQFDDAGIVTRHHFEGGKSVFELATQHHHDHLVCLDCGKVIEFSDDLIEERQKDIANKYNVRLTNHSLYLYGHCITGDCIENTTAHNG
Briefly: EMSA; Mn2+ (100 uM MnCl2); EMSA: 20 mM Tris acetate pH 8.0, 1 mM MgCl2, 50 mM KCl, 1 mM DTT, 100 uM MnCl2, RT, 5 uM DNA, 0-80 uM AsFur, gel at 6 C; protection assay: 100 mM BisTrisPropane pH 7.5, 100 mM KCl, 5 mM MgSO4, 20 uM AsFur, 10 nM plasmid, RT then HinfI 37 C. As to conditions: protein: recombinant; tags: none stated (pDEST14; histidine-rich protein purified by IMAC); chain copies: 2; blunt. On the technique in general: In EMSA bound probe runs differently from free probe, usually more slowly.

“Ferric uptake regulator (Fur) from Aliivibrio salmonicida (natural protein)” yielded a stoichiometry N in data set [1] of 2.

B1: Vibrio anti-consensus (least conserved) (dsDNA)
DNA 1: CCGTGCGCACTCCGCAGGG
DNA 2: CCCTGCGGAGTGCGCACGG
Consider B1, for which the binding result in data set [2] was “no binding”.

B2: Vibrio consensus Fur box (dsDNA)
DNA 1: AATGATAATAATTATCATT
DNA 2: AATGATAATTATTATCATT
B2: the binding result in data set [2] is on record as “binds”.

The stoichiometry N is a count of units in the complex or per binding partner.
